From patent US20030158378A1 (Amgen, published 2003)

Molecular target: T1, FLAG-tagged murine CHL2 polypeptide (mCHL2-FLAG) (murine, UniProt Q8VEA6 27-426)
T1 construct: also called murine CHL2-FLAG; FLAG-tagged mCHL2 protein
T1 sequence: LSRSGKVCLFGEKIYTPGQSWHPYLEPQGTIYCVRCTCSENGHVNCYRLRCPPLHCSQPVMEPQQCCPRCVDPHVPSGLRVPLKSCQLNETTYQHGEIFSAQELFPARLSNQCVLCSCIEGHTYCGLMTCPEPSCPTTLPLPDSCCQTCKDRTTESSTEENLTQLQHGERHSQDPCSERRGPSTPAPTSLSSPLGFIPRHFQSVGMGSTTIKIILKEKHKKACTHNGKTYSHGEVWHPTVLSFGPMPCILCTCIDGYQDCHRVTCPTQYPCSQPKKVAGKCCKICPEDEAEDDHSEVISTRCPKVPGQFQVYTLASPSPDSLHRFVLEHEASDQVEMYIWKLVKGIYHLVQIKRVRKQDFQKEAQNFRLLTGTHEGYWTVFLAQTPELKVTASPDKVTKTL
Experiment: co-immunoprecipitation: mCHL2-FLAG mixed with activin A, anti-mCHL2 antiserum, protein A agarose beads, western blot for activin
Excerpt: FIG. 12 illustrates the results of Western blot analysis using mCHL2-FLAG proteins. In panel A, mCHL2-FLAG was mixed with BMP5 or activin A, treated with an anti-mCHL2 antiserum, and precipitated with protein A agarose beads. In panel B, mCHL2-FLAG was mixed with BMP2, BMP4, BMP5, BMP6, GDF5 (BMP14), or activin A, treated with an anti-mCHL2 antiserum, and precipitated with protein A agarose beads.

B1: activin A (ligand, UniProt P08476 311-426, looked up)
chain: GLECDGKVNICCKKQFFVSFKDIGWNDWIIAPSGYHANYCEGECPSHIAGTSGSSLSFHSTVINHYRMRGHSPFANLKSCCVPTKLRPMSMLYYDDGQNIIKKDIQNMIVEECGCS
B1: no binding.
